Experimental data reported in PMC9973270, “RdmA Is a Key Regulator in Autoinduction of DSF Quorum Quenching in Pseudomonas nitroreducens HS-18” (mBio, 2022).

Legend:
RdmA = molecular target: T1, RdmA (Pseudomonas nitroreducens, UniProt A0ABS0KS77); experiment: EMSA, inhibition of RdmA binding to biotin-labelled dmgA promoter; conditions: RdmA 2 uM preincubated with DSF 30 min at 30 C before promoter fragment F1 (30 min, 22 C); solvent methanol
T1 construct: gene I5I61_25840; full length, 206 residues; N-terminal His6 tag, vector pET32a, expressed in E. coli BL21(DE3); dimer proposed
T1 sequence (A0ABS0KS77 1-206): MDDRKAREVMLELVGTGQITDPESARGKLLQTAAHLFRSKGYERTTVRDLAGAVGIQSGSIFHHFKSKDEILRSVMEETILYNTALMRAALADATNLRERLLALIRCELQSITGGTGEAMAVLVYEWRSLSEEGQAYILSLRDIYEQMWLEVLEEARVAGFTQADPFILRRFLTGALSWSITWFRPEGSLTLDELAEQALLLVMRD

[1] = test system: T2, RdmA (Pseudomonas nitroreducens HS-18), ORF:ff03b8a4; experiment: EMSA; conditions: LightShift chemiluminescent EMSA kit (buffer per manufacturer; pH and salt not stated), 10 uL, 2 nM biotin-DNA (20 fmol; Fig 5 legend says 10 nM), 0-4 uM RdmA …
T2 sequence: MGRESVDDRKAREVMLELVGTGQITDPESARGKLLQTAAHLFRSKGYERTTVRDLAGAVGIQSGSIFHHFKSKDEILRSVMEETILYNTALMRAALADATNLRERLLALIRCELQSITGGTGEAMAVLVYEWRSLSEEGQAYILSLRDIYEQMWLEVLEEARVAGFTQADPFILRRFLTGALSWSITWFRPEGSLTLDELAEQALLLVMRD

| concentration giving complete inhibition of DNA binding (RdmA) | Molecule | binding [1] |
| --- | --- | --- |
| 0.9 mM | CC(C)CCCCCCC/C=C\C(=O)O [DSF, cis-11-methyl-2-dodecenoic acid] |  |
|  | GCTTTCTCTCCCCATGGGTCCCATCTGGCCACCTTGCTCAGGGCAATTCATCGAATCGCCCCGCAAGTGCTTGTGTTGTCTGACGAAATGTAAGCCCGCGAGTGCCAACCA (double strand) [PdmgA F4] | no binding |
|  | GCTTTCTCTCCCCATGGGTCCCATCTGGCCACCTTGCTCAGGGCAATTCATCGAATCGCCCCGCAAGTGCTTGTGTTGTCTGACGAAATGTAAGCCCGCGAGTGCCAACCAAGCAAGCGCTTGG (double strand) [PdmgA F3] | binds more weakly |
|  | GCTTTCTCTCCCCATGGGTCCCATCTGGCCACCTTGCTCAGGGCAATTCATCGAATCGCCCCGCAAGTGCTTGTGTTGTCTGACGAAATGTAAGCCCGCGAGTGCCAACCAAGCAAGCGCTTGGCCATCCAATGGTTGGGGTAGTCATCGACTCGGGGCTTTTCAACCAAGCGCTTGCT (double strand) [PdmgA F2] | binds more weakly |
